According to publication PMC3791407, “Structural Rearrangement in an RsmA/CsrA Ortholog of Pseudomonas aeruginosa Creates a Dimeric RNA-Binding Protein, RsmN”:
Where two headings read alike, the source gives them in different places.

Tests used:
[1] = target: RsmN (Pseudomonas aeruginosa PAO1) (UniProt Q02EI1); experiment: ITC
[2] = target: RsmN R62A (Pseudomonas aeruginosa PAO1) (UniProt Q02EI1); experiment: ITC; settings: ITC: 125 uM RNA titrated into protein, 25 mM potassium phosphate pH 7, 50 mM NaCl, 298 K; SEC: 50 uM protein, 100 uM RNA, same buffer
[3] = target: RsmN (His6-Thb-RsmN) (Pseudomonas aeruginosa PAO1); experiment: SEC + native MS; gel filtration analysis and ESI-MS of the purified His-tagged RsmN construct; conditions in the Supplemental Information
RsmA = RsmA (UniProt O69078 1-61); experiment: ITC; 1 hairpin per monomer; ITC: 125 uM RNA titrated into protein, 25 mM potassium phosphate pH 7, 50 mM NaCl, 298 K; SEC: 50 uM protein, 100 uM RNA, same buffer; settings: protein: recombinant, tags: N-terminal His6-thrombin site (LVPRGS), chain copies: 2, 6-nt loop AAGGAU, G5-C12 closing pair

GCGCAGGAAGCGC [RsmY-1 hairpin]
Kd [1]: 526 nM

UAAAAGGAAUA [PA1003/pqsR ribosome binding site]
Kd [1]: 704 nM

CCCCGAAGGAUCGGGG [RsmZ-2 hairpin]
Kd ([1]; ITC: 125 uM RNA titrated into protein, 25 mM potassium phosphate pH 7, 50 mM NaCl, 298 K, SEC: 50 uM protein, 100 uM RNA, same buffer): 276 nM | binding signal (fold lower affinity than wild type) [2]: > 1000

RsmN (His6-Thb-RsmN) (natural protein)
stoichiometry N [3]: 2

CCCCGAAGGAUCGGGG (structured_RNA) [RsmZ-2 hairpin]
Kd (RsmA): 264 ± 43 nM
